Target: LC3B (1-120, G120C) (human, UniProt Q9GZQ8 1-120, G120C)
Assay: pull-down

B1: GST-ALG2^ΔN23 (domain or fragment)
chain: DQSFLWNVFQRVDKDRSGVISDTELQQALSNGTWTPFNPVTVRSIISMFDRENKAGVNFSEFTGVWKYITDWQNVFRTYDRDNSGMIDKNELKQALSGFGYRLSDQFHDILIRKFDRQGRGQIAFDDFIQGCIVLQRLTDIFRRYDTDQDGWIQVSYEQYLSMVFSIV
B1: binds.
